From the supplement of paper PMC10126150
± gives the standard deviation of the averaged measurements.

Tested on: ATP
Assay: switch fluorescence ratio, 500 uM ATP over buffer (Cy3 cluster intensity, sum of 5 cycles each) (fold (ratio)); higher = stronger signal-on switching upon ATP binding; sequences stand for … in TCGTCGGCAGCGTCAGATGTGTATAAGAGACAGTTTTTTTTTTTTTTTTTTTTTTTTT…TC
Details: aptamer strand: ATP DNA aptamer (quencher-CACCTGGGGGAGTATTGCGGAGGAAGG + anchor), 100 nM annealed; ATP concentration: 500 uM
How it was run: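 Between each of five buffer/ATP cycles, the flow-cell was stripped with NaOH and re-annealed. Each cycle imaged Cy3-labelled switching-strand clusters, annealed to 100 nM quencher-labelled ATP aptamer on a modified Illumina MiSeq flow-cell, first in selection buffer and then after 15 min with 500 uM ATP at 22 °C. The fluorescence ratio is summed target-cycle over summed buffer-cycle Cy3 intensity per cluster, averaged per switch-domain sequence, with clusters outside 100-1000 RFU excluded.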
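Also: ATP exposure 15 min at 22 °C before imaging.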

TTGGGTACGT and TTGGGTAGCC are within error of each other in switch fluorescence ratio: 1.02 ± 0.026 for the first, 1.03 ± 0.032 for the second.

TTGGGTAGGA and TTGGGTATAA are within error of each other in switch fluorescence ratio: 1.03 ± 0.04 for the first, 0.989 ± 0.03 for the second.

TTGGGTATAT and TTGGGTATGC are within error of each other in switch fluorescence ratio: 0.979 ± 0.037 for the first, 0.99 ± 0.046 for the second.

TTGGGTCCGG and TTGGGTCGTT are within error of each other in switch fluorescence ratio: 1.03 ± 0.038 for the first, 0.994 ± 0.014 for the second.

TTGGGTCTGG and TTGGGTGAGC are within error of each other in switch fluorescence ratio: 0.965 ± 0.02 for the first, 0.994 ± 0.024 for the second.

TTGGGTGGC and TTGGGTGTGG are within error of each other in switch fluorescence ratio: 0.999 ± 0.011 for the first, 1.01 ± 0.037 for the second.

TTGGGTTCAC and TTGGGTTGGC are within error of each other in switch fluorescence ratio: 0.988 ± 0.01 for the first, 1.02 ± 0.043 for the second.

TTGGGTTGGT and TTGGTAAAGA are within error of each other in switch fluorescence ratio: 1.01 ± 0.049 for the first, 1 ± 0.013 for the second.

TTGGTAAATG and TTGGTAATGG are within error of each other in switch fluorescence ratio: 0.999 ± 0.012 for the first, 1.04 ± 0.051 for the second.

TTGGTACGGA and TTGGTAGAAA are within error of each other in switch fluorescence ratio: 0.986 ± 0.019 for the first, 0.982 ± 0.024 for the second.

Compared with TTGGTAGCAA, TTGGTAGTTT is lower in switch fluorescence ratio: 1.81 ± 0.41 for the first, 1.022 ± 0.0061 for the second.

TTGGTATAA and TTGGTATCTT are the same in switch fluorescence ratio: 0.999 ± 0.021 for the first, 0.999 ± 0.025 for the second.

TTGGTATGAC and TTGGTATGAG are within error of each other in switch fluorescence ratio: 0.988 ± 0.076 for the first, 0.997 ± 0.013 for the second.

TTGGTATTTT and TTGGTCCGTG are within error of each other in switch fluorescence ratio: 0.989 ± 0.018 for the first, 1.01 ± 0.071 for the second.

TTGGTCCGTT and TTGGTGAACG are within error of each other in switch fluorescence ratio: 1.02 ± 0.045 for the first, 0.989 ± 0.024 for the second.

Compared with TTGGTGATGA, TTGGTGATTG is lower in switch fluorescence ratio: 1.02 ± 0.023 for the first, 0.976 ± 0.014 for the second.

TTGGTGCCGC and TTGGTGCGGA are the same in switch fluorescence ratio: 0.975 ± 0.017 for the first, 0.975 ± 0.056 for the second.

TTGGTGCTGG and TTGGTGGGGG are within error of each other in switch fluorescence ratio: 1.01 ± 0.027 for the first, 0.989 ± 0.023 for the second.

TTGGTGTGGC and TTGGTGTGTA are within error of each other in switch fluorescence ratio: 0.9967 ± 0.0092 for the first, 1.002 ± 0.0089 for the second.

TTGGTGTGTG and TTGGTGTTAG are within error of each other in switch fluorescence ratio: 0.958 ± 0.022 for the first, 0.973 ± 0.031 for the second.

TTGGTGTTGC and TTGGTGTTTA are within error of each other in switch fluorescence ratio: 0.9916 ± 0.0057 for the first, 1.01 ± 0.022 for the second.

TTGGTTAAGA and TTGGTTACGG are within error of each other in switch fluorescence ratio: 0.999 ± 0.04 for the first, 1.014 ± 0.0041 for the second.

TTGGTTAGCC and TTGGTTATCT are within error of each other in switch fluorescence ratio: 0.975 ± 0.078 for the first, 1.01 ± 0.035 for the second.

TTGGTTCATG and TTGGTTCATT are within error of each other in switch fluorescence ratio: 0.998 ± 0.015 for the first, 1.01 ± 0.021 for the second.

TTGGTTGAAT and TTGGTTTAAT are within error of each other in switch fluorescence ratio: 0.998 ± 0.011 for the first, 1.01 ± 0.034 for the second.

TTGGTTTCCT and TTGTAAACGA are within error of each other in switch fluorescence ratio: 1.02 ± 0.038 for the first, 1.01 ± 0.042 for the second.

Compared with TTGTAACCAG, TTGTAAGATT is lower in switch fluorescence ratio: 1.0005 ± 0.001 for the first, 0.987 ± 0.0048 for the second.

TTGTAAGTAG and TTGTAAGTTT are within error of each other in switch fluorescence ratio: 0.979 ± 0.012 for the first, 0.985 ± 0.049 for the second.

TTGTAATAGG and TTGTAATCAG are within error of each other in switch fluorescence ratio: 1.27 ± 0.4 for the first, 0.966 ± 0.045 for the second.

Going from TTGTAATTAA to TTGTACTACC, the switch fluorescence ratio rises from 0.9963 ± 0.0096 to 1.1603 ± 0.00036.

TTGTAGAAAA and TTGTAGGCGA are within error of each other in switch fluorescence ratio: 1.3 ± 0.37 for the first, 1.09 ± 0.0026 for the second.

TTGTAGGTAT and TTGTAGTCTT are within error of each other in switch fluorescence ratio: 0.999 ± 0.069 for the first, 0.991 ± 0.022 for the second.

TTGTATATGG and TTGTATCAGT are within error of each other in switch fluorescence ratio: 1.05 ± 0.022 for the first, 1.01 ± 0.024 for the second.

TTGTATTCTT and TTGTATTTGG are within error of each other in switch fluorescence ratio: 1.04 ± 0.088 for the first, 1.02 ± 0.043 for the second.

First: TTGTCCCTGC
Second: TTGTCGGATT
The switch fluorescence ratio of the first is higher: 1.016 ± 0.0054 for the first, 0.991 ± 0.021 for the second.

TTGTCTGGGG and TTGTGAGTGG are within error of each other in switch fluorescence ratio: 0.985 ± 0.03 for the first, 0.976 ± 0.017 for the second.

TTGTGCCTAT and TTGTGCGAGA are within error of each other in switch fluorescence ratio: 1.005 ± 0.0071 for the first, 0.989 ± 0.013 for the second.

TTGTGGAAGC and TTGTGGCAAC are within error of each other in switch fluorescence ratio: 1.01 ± 0.025 for the first, 1.24 ± 0.3 for the second.

In the case of TTGTGGGAAT, the switch fluorescence ratio is reported as 1.05 ± 0.077.
